The source of these data is patent publication US20230295308A1, “ANTAGONISTIC BIPARATOPIC ANTIBODIES THAT SPECIFICALLY BIND FIBROBLAST GROWTH FACTOR RECEPTOR 2 AND METHODS OF USING SAME” (The Broad Institute, Inc., priority 2020, published 2023).

The target of assay [1] is FGFR2 on SNU-16 gastric cancer cell line with FGFR2 amplification (UniProt P21802). The assay is described as follows: FACS on SNU-16 cells, % cells with FITC+ [cont.].
Assay [2] deals with FGFR2b alpha IIIb antigen (UniProt P21802). Kind of assay: SPR (Biacore), antibody immobilized, FGFR2b alpha IIIb in flow. Background: SPR reads the build-up and loss of mass on a sensor chip optically.
Assay [3] deals with FGFR2 on SNU-16 gastric cancer cell line with FGFR2 amplification (UniProt P21802). The assay is described as follows: row 'Kd (nM) (FACS)'; FACS on SNU-16 cells.
Assay [4] shares this target. The assay is described as follows: FACS on SNU-16 cells, % cells with FITC+ against log antibody concentration; Kd printed in the legend box [cont.].
The target in assay [5] is FGFR2b alpha IIIb antigen (UniProt P21802). Kind of assay: SPR (Biacore), antibody on chip, FGFR2b alpha IIIb antigen.
Assay [6] concerns the target FGFR2 on SNU-16 gastric cancer cell line with FGFR2 amplification (UniProt P21802). Kind of assay: FACS on SNU-16 cells, % No. of cells with FITC+ [cont.].
Assay [7] deals with NIH3T3 cells overexpressing FGFR2-BICC1 fusion. Kind of assay: NIH3T3 FGFR2-BICC1 cell confluency, Incucyte (FIGS. 19A-19E). The class given is cell-based. The settings on record: 60 hours, 0.013-1 μM. How it is done:
FIGS. 19A-19E present graphs showing the ability of biparatopic antibodies to impact FGFR2-fusion driven cell growth in NIH3T3 cells molecularly engineered to overexpress FGFR2-BICC1 fusion. […] The nomenclature of the biparatopic antibodies is based on the designations and descriptions of the parental antibodies presented in FIG. 7B.
The impact of biparatopic antibodies on FGFR2-fusion driven cell growth was assessed in a cell-based assay using biparatopic antibodies that bind to the ECD of FGFR2 and generated as described supra (Example 4). As described herein, the biparatopic antibodies were added to cultures of cells (e.g., NIH3T3 cells or BaF3 cells) molecularly engineered to overexpress FGFR2 fusion.
For assays using NIH3T3 cells, (FIGS. 19A-19E), NIH3T3 cells overexpressing a FGFR2-BICC1 fusion construct were plated in 384 black well plates at a concentration of 1000 cells/well overnight. 6 parental antibodies and 13 biparatopic antibodies were added to each well in duplicates at various concentrations ranging from 1 μM to 0.013 μM (1 μM, 0.833 μM, 0.600 μM, 0.450 μM, 0.316 μM, 0.233 μM, 0.166 μM, 0.125 μM, 0.091 μM, 0.066 μM, 0.048 μM, 0.035 μM, 0.025 μM, 0.018 μM, and 0.013 μM). The cell confluency was measured using Incucyte at 60 hours post treatment, and the IC50 curves were generated using non-linear fit in PRISM 9 software.

In assay [8] the target is FGFR2b alpha IIIb antigen (UniProt P21802). The assay is described as follows: SPR (Biacore), KD matrix by the two arms; unit M from FIG. 17B and paragraph 180.
The next assay concerns the target FGFR2b alpha IIIb (Homo sapiens, UniProt P21802). Kind of assay: Surface Plasmon Resonance (SPR) binding. Particulars: FGFR2b alpha IIIb antigen. The text has this:
FIGS. 17A-17C provide a schematic and tabular data related to assessments made to compare the avidity of biparatopic antibodies to that of their parental (bivalent monospecific) antibodies.
Surface Plasmon Resonance (SPR) as known in the art was used to determine the binding affinities of biparatopic antibodies. The SPR-based binding method involves immobilization of a ligand (antibody) on the surface of a sensor chip. The binding partner of interest or an analyte (FGFR2 ECD) flow through the flow channel. Different concentrations of an analyte flow over the ligand, and the interactions of ligand-analyte can be characterized. The SPR signal originates from changes in the refractive index of the […] at the surface of the sensor chip. The increase in mass associated with a binding event causes a proportional increase in the refractive index, which is observed as a change in response-resonance signal. In brief, for the experiments using the antibodies described herein, the SPR assay was carried out by immobilizing antibodies (used as […]) at a concentration ranging from 1-1000 nM and flow-through FGFR2b alpha IIIb antigen (used as […]). The antibody kinetic data for the interaction with FGFR2b alpha IIb antigen were fitted to the 2-state and 1-1 binding models using Biocore software. The mean and standard deviation KD values are derived from at least three independent runs.
Using SPR, the kinetics of 6 monospecific and 13 biparatopic antibodies for binding to a single antigen, FGFR2b alpha IIb, was measured so as to compare avidity of the biparatopic antibodies to their parental antibodies. Without wishing to be bound by theory, it was expected that the biparatopic antibodies would bind to the FGFR2 antigen more tightly than their parental antibodies and that the tighter binding biparatopic antibodies among the antibodies that were assessed would be more efficient in blocking FGFR2 dimerization (FIG. 17A), thereby leading to inhibition or blocking of constitutive FGFR2 signaling and/or oncogenic transformation. […]

In assay [9] the test system is FGFR2-PHDGH fusion expressing BaF3 cells. Kind of assay: growth of BaF3 cells expressing FGFR2-PHGDH fusion, absence of FGF ligands (FIG. 9). Format: cell-based. Particulars: BaF3 FGFR2-PHGDH fusion. How it is done:
Antibodies A-F were tested to determine whether they could inhibit the ligand-induced growth of BaF3 cells expressing FGFR2IIIb. Antibodies C, D, and E, which bind FGFR2 Ig-2 and Ig-3, were effective in blocking ligand-induced growth of BaF3 cells expressing wild-type FGFR2IIIb (FIG. 8). The effects of antibodies A-F were then tested on BaF3 cells expressing FGFR2-PHDGH fusions. […] Antibody F inhibited the FGFR2-PHDGH activating fusion in BaF3 cells (FIG. 9).

The target of a further assay is T1, 15AA-Nterm FGFR2.
T1 peptide: RPSFSLVEDTTLEPE
The assay is described as follows: row 'Kd (nM) (patent)', value quoted from the source patent; method: Indirect ELISA-15AA-Nterm FGFR2. Background: In an ELISA, binding on a coated surface is turned into a signal by an enzyme label.

Entries after “also recorded” stand apart in the source; their conditions may differ.

FGFR2b alpha IIIb, sequence (P21802 22-378 isoform P21802-3): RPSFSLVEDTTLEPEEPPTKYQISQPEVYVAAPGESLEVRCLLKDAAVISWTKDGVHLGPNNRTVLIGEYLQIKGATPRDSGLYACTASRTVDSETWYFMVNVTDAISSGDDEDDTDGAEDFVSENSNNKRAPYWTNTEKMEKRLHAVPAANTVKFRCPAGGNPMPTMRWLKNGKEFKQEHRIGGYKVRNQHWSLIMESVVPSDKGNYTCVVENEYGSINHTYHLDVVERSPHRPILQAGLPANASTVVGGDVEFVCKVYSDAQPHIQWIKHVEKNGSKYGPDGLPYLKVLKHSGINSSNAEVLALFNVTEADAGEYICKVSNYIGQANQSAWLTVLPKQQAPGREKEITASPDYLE

B1: 10164 (antibody, V domains shown)
VH: QVQLVESGGGLVKPGGSLRLSCAASGFTFSSYALSWVRQAPGKGLEWVGRIRSKIDGGTTDYAAPVKGRFTISRDDSKNTLYLQMNSLKTEDTAVYYCARDRSPSDSSAFAIWGQGTLVTVSS
VL: DIELTQPPSVSVSPGQTASITCSGDNLGSQYVDWYQQKPGQAPVLVIYDDNDRPSGIPERFSGSNSGNTATLTISGTQAEDEADYYCQSWDSLSVVFGGGTKLTVLG
notes: the duobody scheme implies IgG1 with K409R or F405L; also called Antibody C; N10164
For B1, the EC50 (read off the curve) in assay [1] and in assay [6] was 0.02 µg/mL throughout. In assay [2], this molecule yielded a Binding Stoichiometry of 1.9. Further, the figures for the Kd in assay [3], in assay [4] and in assay [5] were 0.13 nM, 0.13 nM and 1.7 nM, respectively.

B2: GE/N10: biparatopic antibody combining parental antibodies GE (Antibody D) and N10 (Antibody C) (antibody, V domains shown)
VH 1: EVQLVESGGGLVQPGGSLRLSCAASGFPFTSTGISWVRQAPGKGLEWVGRTHLGDGSTNYADSVKGRFTISADTSKNTAYLQMNSLRAEDTAVYYCARTYGIYDTYDMYTEYVMDYWGQGTLVTVSS
VL 1: DIQMTQSPSSLSASVGDRVTITCRASQDVDTSLAWYKQKPGKAPKLLIYSASFLYSGVPSRFSGSGSGTDFTLTISSLQPEDFATYYCQQSTGHPQTFGQGTKVEIK
VH 2: QVQLVESGGGLVKPGGSLRLSCAASGFTFSSYALSWVRQAPGKGLEWVGRIRSKIDGGTTDYAAPVKGRFTISRDDSKNTLYLQMNSLKTEDTAVYYCARDRSPSDSSAFAIWGQGTLVTVSS
VL 2: DIELTQPPSVSVSPGQTASITCSGDNLGSQYVDWYQQKPGQAPVLVIYDDNDRPSGIPERFSGSNSGNTATLTISGTQAEDEADYYCQSWDSLSVVFGGGTKLTVLG
B2: the “inhibition of growth of NIH3T3 cells overexpressing FGFR2-BICC1 compared to parental antibodies” value (from here on “inhibition … compared to parental antibodies”) in assay [7] is “more efficient and potent; also recorded: more effective and potent”.

B3: FGFR_GA/GE_FL (bispecific antibody, part only; not given: Constant regions with duobody mutation, part only)
heavy chain, GA arm, part: QVQLVQSGAEVKKPGSSVKVSCKASGYIFTTYNVHWVRQAPGQGLEWIGSIYPDNGDTSYNQNFKGRATITADKSTSTAYMELSSLRSEDTAVYYCARGDFAYWGQGTLVTVSS
light chain, GA arm: DIQMTQSPSSLSASVGDRVTITCKASQGVSNDYAWYQQKPGKAPKLLIYSASYRYTGVPSRFSGSGSGTDFTFTISSLQPEDIATYYCQQHSTTPYTFGQGTKLEIK
heavy chain, GE arm, part: EVQLVESGGGLVQPGGSLRLSCAASGFPFTSTGISWVRQAPGKGLEWVGRTHLGDGSTNYADSVKGRFTISADTSKNTAYLQMNSLRAEDTAVYYCARTYGIYDTYDMYTEYVMDYWGQGTLVTVSS
light chain, GE arm: DIQMTQSPSSLSASVGDRVTITCRASQDVDTSLAWYKQKPGKAPKLLIYSASFLYSGVPSRFSGSGSGTDFTLTISSLQPEDFATYYCQQSTGHPQTFGQGTKVEIK
With B3, in assay [2], the Binding Stoichiometry was found to be 1.2 and the Kd (in general, a measure of binding affinity in units of concentration) amounted to 0.87 nM. Further, the Kd in [8] worked out at 0.87 nM.

B4: Biparatopic antibody GE/N12 (bispecific antibody, V domains shown)
VH 1: EVQLVESGGGLVQPGGSLRLSCAASGFPFTSTGISWVRQAPGKGLEWVGRTHLGDGSTNYADSVKGRFTISADTSKNTAYLQMNSLRAEDTAVYYCARTYGIYDTYDMYTEYVMDYWGQGTLVTVSS
VL 1: DIQMTQSPSSLSASVGDRVTITCRASQDVDTSLAWYKQKPGKAPKLLIYSASFLYSGVPSRFSGSGSGTDFTLTISSLQPEDFATYYCQQSTGHPQTFGQGTKVEIK
VH 2: QVQLVQSGAEVKKPGESLKISCKGSGYSFTNYYIHWVRQMPGKGLEWMGAIYPDNSDTTYSPSFQGQVTISADKSISTAYLQWSSLKASDTAMYYCARGADIWGQGTLVTVSS
VL 2: DIQMTQSPSSLSASVGDRVTITCRASQDIDPYLSNWYQQKPGKAPKLLIYDASNLQSGVPSRFSGSGSGTDFTLTISSLQPEDFATYYCQQTTSHPYTFGQGTKVEIK
In [2], B4 showed a Binding Stoichiometry of 1.3 and a Kd of 0.42 nM. The dissociation constant Kd in assay [8] worked out at 0.42 nM. Further, in [7], the “inhibition … compared to parental antibodies” value was “more efficient and potent; also recorded: more effective and potent”.

B5: M048-D01 (antibody, V domains shown)
VH: EVQLLESGGGLVQPGGSLRLSCAASGFTFSSYAMSWVRQAPGKGLEWVSAISGSGTSTYYADSVKGRFTISRDNSKNTLYLQMNSLRAEDTAVYYCARVRYNWNHGDWFDPWGQGTLVTVSS
VL: QSVLTQPPSASGTPGQRVTISCSGSSSNIGNNYVSWYQQLPGTAPKLLIYENYNRPAGVPDRFSGSKSGTSASLAISGLRSEDEADYYCSSWDDSLNYWVFGGGTKLTVLG
notes: Parental bivalent monospecific antibody; also called Antibody A; Bayer
Consider B5, for which the EC50 (read off the curve) (commonly the concentration that produces a half-maximal response) in [1] was 0.1 µg/mL; in [6], 4 µg/mL. For the same molecule, the Binding Stoichiometry in assay [2] was 1.7. Besides, the Kd is 16 nM in the assay with FGFR2b alpha IIIb; 30.7 nM in assay [3]; 30.7 nM in assay [4]; 16 nM in assay [5]; 105 nM in the assay with 15AA-Nterm FGFR2. In [9], the “agonist activity in the absence of FGF ligands” value was “agonist activity”.

B6: Biparatopic antibody B/GE (bispecific antibody, V domains shown)
VH 1: EVQLLESGGGLVQPGGSLRLSCAASGFTFSSYAMSWVRQAPGKGLEWVSAISGSGTSTYYADSVKGRFTISRDNSKNTLYLQMNSLRAEDTAVYYCARVRYNWNHGDWFDPWGQGTLVTVSS
VL 1: QSVLTQPPSASGTPGQRVTISCSGSSSNIGNNYVSWYQQLPGTAPKLLIYENYNRPAGVPDRFSGSKSGTSASLAISGLRSEDEADYYCSSWDDSLNYWVFGGGTKLTVLG
VH 2: EVQLVESGGGLVQPGGSLRLSCAASGFPFTSTGISWVRQAPGKGLEWVGRTHLGDGSTNYADSVKGRFTISADTSKNTAYLQMNSLRAEDTAVYYCARTYGIYDTYDMYTEYVMDYWGQGTLVTVSS
VL 2: DIQMTQSPSSLSASVGDRVTITCRASQDVDTSLAWYKQKPGKAPKLLIYSASFLYSGVPSRFSGSGSGTDFTLTISSLQPEDFATYYCQQSTGHPQTFGQGTKVEIK
Regarding B6, the Binding Stoichiometry in assay [2] turned out to be 1.3. In addition, the Kd in assay [2] and in assay [8] was 0.37 nM in each case. For the same molecule, in assay [7], the “inhibition … compared to parental antibodies” value was “more efficient and potent; also recorded: more effective and potent”.
